This test deals with Neuropeptide Y (Homo sapiens), P01303. The note with it: remark: other sources report otherwise.

B1: Neuropeptide Y receptor type 2, P49146 (protein)
chain: MGPIGAEADENQTVEEMKVEQYGPQTTPRGELVPDPEPELIDSTKLIEVQVVLILAYCSIILLGVIGNSLVIHVVIKFKSMRTVTNFFIANLAVADLLVNTLCLPFTLTYTLMGEWKMGPVLCHLVPYAQGLAVQVSTITLTVIALDRHRCIVYHLESKISKRISFLIIGLAWGISALLASPLAIFREYSLIEIIPDFEIVACTEKWPGEEKSIYGTVYSLSSLLILYVLPLGIISFSYTRIWSKLKNHVSPGAANDHYHQRRQKTTKMLVCVVVVFAVSWLPLHAFQLAVDIDSQVLDLKEYKLIFTVFHIIAMCSTFANPLLYGWMNSNYRKAFLSAFRCEQRLDAIHSEVSVTFKAKKNLEVRKNSGPNDSFTEATNV
For the molecule B1, the dissociation constant Kd (usually a measure of binding affinity in units of concentration) stood at 35 nM.

These data come from publication PMC7736470.
